Measured values from PMC9239096.

System: T1, KdpE-MBP (Sinorhizobium fredii CCBAU45436 (SF4)), ORF:2638478e
T1 sequence: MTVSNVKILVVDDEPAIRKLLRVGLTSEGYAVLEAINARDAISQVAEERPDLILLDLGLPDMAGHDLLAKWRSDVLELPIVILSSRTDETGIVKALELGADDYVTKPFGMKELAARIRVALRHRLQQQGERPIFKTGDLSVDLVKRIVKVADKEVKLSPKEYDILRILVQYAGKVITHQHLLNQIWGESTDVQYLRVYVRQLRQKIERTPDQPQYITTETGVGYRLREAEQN
Experiment: EMSA
Settings: 25 mM Tris-HCl pH 8.0, 0.5 mg/mL BSA, 0.1 mg/mL sonicated salmon sperm DNA, 5% glycerol, 0.05% DDM; 10 uL, 20 C, 30 min; 6% native PAGE

Q: For “TCCTCCTGCGCCTCTCTCGAACCTTTATGCGGTTCGGAGCCATATTCCTGACAAGATCCATCCACCGCCGCGCCGAACTCGATCGTCGCGCCGGGATGCGCACATCGATCGCGATCACCTGCCGGGCGGCCCGGCGCTGCCTCCAGGTGACGCGCAGTCAGTAGAAACAACGCACAGGGATTACCGACATGGACATTGTCGTTCTCGCAATAGGCATCGTGTTCTTCGCCTTATCGTTTGCCTATGTCCGGGCGTGCAGCAACCTCTAATCGCGGAGCGGAAAGATG (double strand) [Probe1_kdpF]”, which binding is on record?
A: Its binding is “no binding”.
